Assay in all cases: cell-based or functional assay
The target in assay [1] is EE-GSK3β: human GSK3β with the EFMPME (EE) epitope tag at the N-terminus (human) (UniProt P49841).
Assay [2] addresses RPRTSSPA
In assay [3] the target is PRTSSF.
Assay [4] addresses RPRTSAF.

Sequence of EE-GSK3β: human GSK3β with the EFMPME (EE) epitope tag at the N-terminus (human) (P49841 other isoform, or with tags, fused parts or gaps): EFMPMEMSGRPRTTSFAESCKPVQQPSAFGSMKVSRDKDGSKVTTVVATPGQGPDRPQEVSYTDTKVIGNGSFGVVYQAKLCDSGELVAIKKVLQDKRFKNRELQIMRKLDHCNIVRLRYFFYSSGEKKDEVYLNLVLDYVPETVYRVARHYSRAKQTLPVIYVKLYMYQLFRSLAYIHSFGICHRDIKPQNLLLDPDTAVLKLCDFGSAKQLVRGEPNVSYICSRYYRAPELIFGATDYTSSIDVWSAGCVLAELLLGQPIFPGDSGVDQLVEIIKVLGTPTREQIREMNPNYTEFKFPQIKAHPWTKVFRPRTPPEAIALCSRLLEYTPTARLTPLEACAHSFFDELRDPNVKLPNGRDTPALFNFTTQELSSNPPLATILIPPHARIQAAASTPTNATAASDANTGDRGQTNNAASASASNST

The substance “HA-308D/473D-RAC-PKα: constitutively active double mutant (Thr308 and Ser473 changed to Asp) (enzyme)” registered an increase in GSK3 activity on PP2A treatment after coexpression in 293 cells in assay [1] of 85%.

In turn, “HA-RAC-PKα: haemagglutinin epitope-tagged wild-type human RAC-PKα (enzyme)” displayed an increase in GSK3 activity on PP2A treatment after coexpression in 293 cells in assay [1] of 68%.

Regarding “HA-KD-RAC-PKα: kinase-dead HA-RAC-PKα in which Lys179 is mutated to Ala (enzyme)”, the increase in GSK3 activity on PP2A treatment after coexpression in 293 cells in assay [1] is 12%.

With “HA-RAC-PKα immunoprecipitated from IGF-1 stimulated 293 cells (enzyme)”, the rate of phosphorylation (cell stands under Vmax; may belong to V (0.1 mM)) in assay [2], in assay [3] and in assay [4] was 0 in each case.

For the origin of these results see patent US20110275102A1.
